Measured values from the supplement of paper PMC10567573.

B1: CDKN1A (parent)
chain: RRQTSMTDFYHSKRRLIFSKRKP
B2: GMCL1 (parent)
chain: RPDTGDDAAGHGFCYCAGSHKRKR

Variants of: B1
Assay: protein stability index of a GFP-peptide fusion (GPS, HEK-293T) (PSI 1-6); higher = more stable
Conditions: c terminus: native
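Also: lentivirally expressed fusions sorted by FACS into six bins by GFP to DsRed ratio, PSI derived from sequencing read proportions per bin multiplied by bin number.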

First: RDQTSMTDFYHSKRRLIFSKRKP [R2D]
Second: RMQTSMTDFYHSKRRLIFSKRKP [R2M]
The protein stability index of the first is lower: 2.5 for the first, 4.02 for the second.

Going from RKQTSMTDFYHSKRRLIFSKRKP [R2K] to RWQTSMTDFYHSKRRLIFSKRKP [R2W], the protein stability index rises from 1.75 to 2.28.

First: RGQTSMTDFYHSKRRLIFSKRKP [R2G]
Second: RNQTSMTDFYHSKRRLIFSKRKP [R2N]
The protein stability index of the first is higher: 3.55 for the first, 3.28 for the second.

Compared with RSQTSMTDFYHSKRRLIFSKRKP [R2S], RIQTSMTDFYHSKRRLIFSKRKP [R2I] is higher in protein stability index: 1.11 for the first, 2.89 for the second.

Compared with RPQTSMTDFYHSKRRLIFSKRKP [R2P], RLQTSMTDFYHSKRRLIFSKRKP [R2L] is lower in protein stability index: 3.33 for the first, 1.97 for the second.

First: RAQTSMTDFYHSKRRLIFSKRKP [R2A]
Second: RVQTSMTDFYHSKRRLIFSKRKP [R2V]
The protein stability index of the first is lower: 2.1 for the first, 2.74 for the second.

Compared with RRSTSMTDFYHSKRRLIFSKRKP [Q3S], RRGTSMTDFYHSKRRLIFSKRKP [Q3G] is higher in protein stability index: 2.27 for the first, 3.86 for the second.

Going from RRKTSMTDFYHSKRRLIFSKRKP [Q3K] to RRFTSMTDFYHSKRRLIFSKRKP [Q3F], the protein stability index falls from 2.72 to 2.24.

Going from RRTTSMTDFYHSKRRLIFSKRKP [Q3T] to RRRTSMTDFYHSKRRLIFSKRKP [Q3R], the protein stability index falls from 2.71 to 2.49.

First: RRLTSMTDFYHSKRRLIFSKRKP [Q3L]
Second: RRQESMTDFYHSKRRLIFSKRKP [T4E]
The protein stability index of the first is higher: 4.67 for the first, 3.64 for the second.

First: RRQFSMTDFYHSKRRLIFSKRKP [T4F]
Second: RRQASMTDFYHSKRRLIFSKRKP [T4A]
The protein stability index of the first is lower: 2.21 for the first, 2.23 for the second.

Going from RRQLSMTDFYHSKRRLIFSKRKP [T4L] to RRQPSMTDFYHSKRRLIFSKRKP [T4P], the protein stability index rises from 2.1 to 2.86.

First: RRQCSMTDFYHSKRRLIFSKRKP [T4C]
Second: RRQKSMTDFYHSKRRLIFSKRKP [T4K]
The protein stability index of the first is higher: 2.33 for the first, 2.26 for the second.

First: VRQTSMTDFYHSKRRLIFSKRKP [R1V]
Second: ARQTSMTDFYHSKRRLIFSKRKP [R1A]
The protein stability index of the first is higher: 2.34 for the first, 1.71 for the second.

Going from MRQTSMTDFYHSKRRLIFSKRKP [R1M] to YRQTSMTDFYHSKRRLIFSKRKP [R1Y], the protein stability index rises from 2.04 to 2.74.

Compared with LRQTSMTDFYHSKRRLIFSKRKP [R1L], FRQTSMTDFYHSKRRLIFSKRKP [R1F] is higher in protein stability index: 1.96 for the first, 3.44 for the second.

Compared with ERQTSMTDFYHSKRRLIFSKRKP [R1E], WRQTSMTDFYHSKRRLIFSKRKP [R1W] is lower in protein stability index: 3 for the first, 2.69 for the second.

Compared with TRQTSMTDFYHSKRRLIFSKRKP [R1T], QRQTSMTDFYHSKRRLIFSKRKP [R1Q] is lower in protein stability index: 3.87 for the first, 1.72 for the second.

First: KRQTSMTDFYHSKRRLIFSKRKP [R1K]
Second: NRQTSMTDFYHSKRRLIFSKRKP [R1N]
The protein stability index of the first is lower: 2.57 for the first, 2.77 for the second.

First: GRQTSMTDFYHSKRRLIFSKRKP [R1G]
Second: IRQTSMTDFYHSKRRLIFSKRKP [R1I]
The protein stability index of the first is lower: 1.02 for the first, 1.98 for the second.

For SRQTSMTDFYHSKRRLIFSKRKP [R1S], the protein stability index was 2.99.

Variants of: B2
Assay: as above
Conditions: c terminus: a fixed tail appended

First: RPDTGDDAAGHGFCYCAGSHKRSR [K23S]
Second: RPDTGDDAAGHGFCYCAGSHKRWR [K23W]
The protein stability index of the first is higher: 3.12 for the first, 1.95 for the second.

Going from RPDTGDDAAGHGFCYCAGSHKRTR [K23T] to RPDTGDDAAGHGFCYCAGSHKRHR [K23H], the protein stability index rises from 2.18 to 3.1.

First: RPDTGDDAAGHGFCYCAGSHKRER [K23E]
Second: RPDTGDDAAGHGFCYCAGSHKRQR [K23Q]
The protein stability index of the first is higher: 2.94 for the first, 2.92 for the second.

Compared with RPDTGDDAAGHGFCYCAGSHKRMR [K23M], RPDTGDDAAGHGFCYCAGSHKRAR [K23A] is lower in protein stability index: 2.32 for the first, 2.2 for the second.

First: RPDTGDDAAGHGFCYCAGSHKRVR [K23V]
Second: RPDTGDDAAGHGFCYCAGSHKRCR [K23C]
The protein stability index of the first is lower: 2.33 for the first, 3.71 for the second.

First: RPDTGDDAAGHGFCYCAGSHKRGR [K23G]
Second: RPDTGDDAAGHGFCYCAGSHKRRR [K23R]
The protein stability index of the first is higher: 2.9 for the first, 2.37 for the second.

Going from RPDTGDDAAGHGFCYCAGSHKRDR [K23D] to RPDTGDDAAGHGFCYCAGSHKRLR [K23L], the protein stability index falls from 3.33 to 2.16.

First: RPDTGDDAAGHGFCYCAGSHKRPR [K23P]
Second: RPDTGDDAAGHGFCYCAGSHKRNR [K23N]
The protein stability index of the first is lower: 2.84 for the first, 3.03 for the second.

Compared with RPDTGDDAAGHGFCYCAGSHKRFR [K23F], RPDTGDDAAGHGFCYCAGSHKRIR [K23I] is higher in protein stability index: 1.9 for the first, 3.04 for the second.

Compared with RPDTGDDAAGHGFCYCAGSHKRYR [K23Y], RPDTGDDAAGHGFCYCAGSHKRKL [R24L] is higher in protein stability index: 2.22 for the first, 2.66 for the second.

Compared with RPDTGDDAAGHGFCYCAGSHKRKN [R24N], RPDTGDDAAGHGFCYCAGSHKRKK [R24K] is lower in protein stability index: 3.84 for the first, 3.65 for the second.

Going from RPDTGDDAAGHGFCYCAGSHKRKD [R24D] to RPDTGDDAAGHGFCYCAGSHKRKM [R24M], the protein stability index falls from 4.3 to 2.77.

Compared with RPDTGDDAAGHGFCYCAGSHKRKT [R24T], RPDTGDDAAGHGFCYCAGSHKRKP [R24P] is higher in protein stability index: 3.04 for the first, 3.94 for the second.

Going from RPDTGDDAAGHGFCYCAGSHKRKA [R24A] to RPDTGDDAAGHGFCYCAGSHKRKI [R24I], the protein stability index falls from 3.53 to 3.33.

Going from RPDTGDDAAGHGFCYCAGSHKRKE [R24E] to RPDTGDDAAGHGFCYCAGSHKRKV [R24V], the protein stability index falls from 3.64 to 3.38.

Compared with RPDTGDDAAGHGFCYCAGSHKRKF [R24F], RPDTGDDAAGHGFCYCAGSHKRKG [R24G] is higher in protein stability index: 3.18 for the first, 3.4 for the second.

First: RPDTGDDAAGHGFCYCAGSHKRKS [R24S]
Second: RPDTGDDAAGHGFCYCAGSHKRKQ [R24Q]
The protein stability index of the first is higher: 3.47 for the first, 3.35 for the second.

Compared with RPDTGDDAAGHGFCYCAGSHKRKH [R24H], RPDTGDDAAGHGFCYCAGSHKRKC [R24C] is higher in protein stability index: 4.13 for the first, 4.32 for the second.

First: RPDTGDDAAGHGFCYCAGSHKRKW [R24W]
Second: RPDTGDDAAGHGFCYCAGSHKRKY [R24Y]
The protein stability index of the first is lower: 2.87 for the first, 3.75 for the second.

Compared with RPDTGDDAAGHGFCYCAGGHKRKR [S19G], RPDTGDDAAGHGFCYCAGWHKRKR [S19W] is lower in protein stability index: 3.14 for the first, 2.45 for the second.

Going from RPDTGDDAAGHGFCYCAGFHKRKR [S19F] to RPDTGDDAAGHGFCYCAGRHKRKR [S19R], the protein stability index rises from 2.63 to 3.26.

Going from RPDTGDDAAGHGFCYCAGDHKRKR [S19D] to RPDTGDDAAGHGFCYCAGIHKRKR [S19I], the protein stability index rises from 2.86 to 2.96.

Compared with RPDTGDDAAGHGFCYCAGQHKRKR [S19Q], RPDTGDDAAGHGFCYCAGPHKRKR [S19P] is lower in protein stability index: 3.16 for the first, 2.45 for the second.

First: RPDTGDDAAGHGFCYCAGVHKRKR [S19V]
Second: RPDTGDDAAGHGFCYCAGNHKRKR [S19N]
The protein stability index of the first is lower: 2.72 for the first, 3.31 for the second.

First: RPDTGDDAAGHGFCYCAGEHKRKR [S19E]
Second: RPDTGDDAAGHGFCYCAGLHKRKR [S19L]
The protein stability index of the first is higher: 2.98 for the first, 2.82 for the second.

Going from RPDTGDDAAGHGFCYCAGMHKRKR [S19M] to RPDTGDDAAGHGFCYCAGAHKRKR [S19A], the protein stability index rises from 2.52 to 3.62.

In the case of RPDTGDDAAGHGFCYCAGYHKRKR [S19Y], the protein stability index is reported as 2.53.
